Assay results as given in US9040266B2, “Cell-based systems for production of methyl formate” (The Regents of the University of California, priority 2009, dated 2015).

B1: B. phymatum: methyl halide transferase from Burkholderia phymatum STM815, SEQ ID NO: 4 (protein, listed as Burkholderia phymatum)
chain: MSDKRPSVPPSAPDFENRDPNAPGFWDERFGRGFTPWDQAGVPPAFKAFVERHSPVPVLIPGCGSAYEARWLAEKGWTVRAIDFAPNAVEAARAQLGSHASLVHEADFFTYRPPFDPGWIYERAFLCALPPARRSDWVARMAQLLSPGGLLAGFFFIGATEKGPPFGIERAELDALMSPDFTLVEDEPVDDSIAVFAGRERWLTWRRRGAARG
B2: C. neoformans JEC21: methyl halide transferase (hypothetical protein) from Cryptococcus neoformans var. neoformans JEC21, SEQ ID NO: 12 (protein)
chain: MAQASGDDNAWEERWAQGRTAFDQSAAHPVFVKFLKSDIARELGVPKSGKALVPGCGRGYDVHLLASTGLDAIGLDLAPTGVEAARRWIGSQPSTSGKADILVQDFFTYDPLEKFDLIYDYTFLCALPPSLRQEWARQTTHLANIAADTNPILITLMYPLPPSAKSGGPPFALSEEIYQELLKEQGWKMVWSEDIEEPTRMVGAPGGEKLAVWKRI
modifications: Cryptococcus neoformans
B3: Leptospirillum: methyl halide transferase from Leptospirillum sp. Group II UBA, SEQ ID NO: 11 (protein)
chain: MPDKIFWNQRYLDKNTGWDLGQPAPPFVRLVEKGEFGPPGRVLIPGAGRSYEGIFLASRGYDVTCVDFAPQAVREAREAARQAGVKLTVVEEDFFRLDPRTIGVFDYLVEHTCFCAIDPPMRQAYVDQSHALLAPGGLLIGLFYAHGREGGPPWTTTEEEVRGLFGKKFDLLSLGLTDWSVDSRKGEELLGRLRRKNDRIE
modifications: Leptospirillum species, synthetic polypeptide of methyl halide transferase thereof
B4: RB: methyl halide transferase from Robiginitalea bofirmata HTCC2501, SEQ ID NO: 17 (protein, listed as Robiginitalea biformata)
chain: MTDLDRDFWEDRYRAGTDRWDLGGPSPPLTAYIDGLTDQELRILVPGAGRGYEAEYLYRAGFENLTIVDLARRPLDDLRRRLPELPAAALQQTDFFSFRGGPFDLILEHTFFCALPPARRPDYVQAMHRLLVPGGRLAGLFFDFPLTEDGPPFGGSETEYRNRFSSLFHIRKLERARNSIPPRAGTELFFIFEKK
B5: MM: methyl halide transferase from Maricaulis maris MCS10, SEQ ID NO: 18 (protein, listed as Maricaulis maris)
chain: MTHDENRSAFDWEARFIDGNTPWERGALHPAFEAWQHQSAFAAGDRALIPGCGRSPELLALAQAGLAVTGADLSGTAMAWQRKLFADAGQQVELITGDVFDWQPQQALDLVYEQTFLCAIHPRLRTRYEEALARWLKPGGRLYALFMQKPERGGPPFDCALDAMRALFPAERWTWPAEADIQPWPHPQLNGKAELGAVLIRR
B6: AT-2: methyl halide transferase from Arabidopsis thaliana TM2, SEQ ID NO: 10 (protein, listed as Arabidopsis thaliana)
chain: MAEEQQNSDQSNGGNVIPTPEEVATFLHKTVEEGGWEKCWEEEITPWDQGRATPLIVHLVDTSSLPLGRALVPGCGGGHDVVAMASPERFVVGLDISESALAKANETYGSSPKAEYFSFVKEDVFTWRPTELFDLIFDYVFFCAIEPEMRPAWAKSMYELLKPDGELITLMYPITDHVGGPPYKVDVSTFEEVLVPIGFKAVSVEENPHAIPTRQREAGKVEEDQLIPKKEILLFGKSVICVIYKE
B7: FB: methyl halide transferase from Flavobacteria bacterium BBFL7, SEQ ID NO: 19 (protein, listed as Flavobacteria bacterium)
chain: MPLNKQYWEDRYKNNSTGWDLGIISTPIKEYVNQLENKNSKILIPGAGNAHEATYLVKNGFKNIFILDIALSPLKFAKQRSKLPEEHLIQQDFFDHKGSYDLIIEQTFFCALEPRFRESYVKKIHMLLRDQGCLIGVLFNFENNLSSPPFGGSINEYLNLFEPYFEIVTMEPCNNSVIERQGKEIFIKLKKKK
B8: VV: methyl halide transferase from Vitis vinifera, SEQ ID NO: 20 (protein, listed as Vitis vinifera)
chain: MASPDNTKPKARSSESVTGQRRGRRPSDRHWPCVGEESGSFYNTIADGERQYQHRIELRASKNKPSSWEEKWQQGLTPWDLGKATPIIEHLHQAGALPNGRTLIPGCGRGYDVVAIACPERFVVGLDISDSAIKKAKESSSSSWNASHFIFLKADFFTWNPTELFDLIIDYTFFCAIEPDMRPAWASRMQQLLKPDGELLTLMFPISDHTGGPPYKVSIADYEKVLHPMRFKAVSIVDNEMAIGSRKKKYPLKPDLSLFGFVDRPKRAYEARSEEFRISDWVCGWMGLCVPSGRISGGVCGLLSGRSLTWAKNLGVSTTQLRMSNNGSSIESNPKVQKLNQIIGSDSAGGWEKSWQQGHTPWDLGKPTPIIQHLHQTGTLPSGKTLVPGCGCGYDVVTIACPERFVVGLDISDSAIKKAKEISDHAGGPPYKVSVADYEEVLHPMGFKAVSIVDNKMAIGPRKGREKLGRWKRTPSKSLL
B9: HH: methyl halide transferase from Halorhodospira halophila SL1, SEQ ID NO: 21 (protein, listed as Halorhodospira halophila)
chain: MSGDPDPRRAPWEARWREGRTGWDRGGVSPTLEAWLSAGVIPGRRVLVPGAGRGYEVEALARRGYKVTAVDIAAEACQQLRDGLDAAGVEARVVQADLLAWQPDTPFDAVYEQTCLCALDPADWPAYEQRLYGWLRPGGVLLALFMQTGASGGPPFHCALPEMATLFDSERWQWPAEPPRQWPHPSGRWEEAVRLLRR
B10: O. sativa: methyl halide transferase from Oryza sativa (japonica cultivar-group), SEQ ID NO: 13 (protein, listed as Oryza sativa)
chain: MASAIVDVAGGGRQQALDGSNPAVARLRQLIGGGQESSDGWSRCWEEGVTPWDLGQRTPAVVELVHSGTLPAGDATTVLVPGCGAGYDVVALSGPGRFVVGLDICDTAIQKAKQLSAAAAAAADGGDGSSSFFAFVADDFFTWEPPEPFHLIFDYTFFCALHPSMRPAWAKRMADLLRPDGELITLMYLAEGQEAGPPFNTTVLDYKEVLNPLGLVITSIEDNEVAVEPRKGMEKIARWKRMTKSD
B11: O. tauri: methyl halide transferase (unnamed protein product) from Ostreococcus tauri, SEQ ID NO: 14 (protein, listed as Ostreococcus tauri)
chain: MTTSSAPTRHTSMRVALAAPATVTRRLGTYKRVFDRRAMSTRAIDGAVTSNAGDFARQDGSTDWEGMWSRGITKGAAFDCSRTEPAFQNALDAKEIAIGSGRALVPGCGRGYALASLARAGFGDVVGLEISETAKEACEEQLKAESIPETARVEVVVADFFAYDPKEAFDAAYDCTFLCAIDPRRREEWARKHASLIKPGGTLVCLVFPVGDFEGGPPYALTPEIVRELLAPAGFEEIELRETPAEMYARGRLEYLFTWRRRS

Tested on: methyl bromide and methyl iodide production in E. Coli
Assay: Methyl halide production by heterologous MHTs expressed in E. coli (Example 8, headspace GC/MS)
Format: cell-based
Conditions: 165 mM NaX, 100 uM IPTG, 1.5 hours, FIG. 7
Method: Nineteen methyl halide transferase genes from various organisms were codon-optimized and introduced into E. Coli. Production of methyl bromide and methyl iodide was determined for each. […] Group II UBA; Cryptococcus neoformans var. neoformans JEC21; Oryza sativa (japonica cultivar-group); Ostreococcus tauri; Dechloromonas aromatica RCB; Coprinopsis cinerea okayama; Robiginitalea bofirmata HTCC2501; Maricaulis maris MCS10; Flavobacteria bacterium BBFL7; Vitis vinifera and; halorhodospira halophila SL1.
For each strain a single colony was picked and grown overnight (10-14 hrs) in 20 mL of LB miller in a 30 mL glass test tube with aeration (a loose cap) at 37 C and 250 rpm shaking. The culture was spun down in a swinging bucket centrifuge for 5 min @ 3000×g. The cells were resuspended in 20mL of appropriate media (10 g/L Tryptone, 5 g/L Yeast Extract, 165 mM NaX [where X=CI, Br, I]) containing 100 uM IPTG inducer. The cells were sealed with rubber stoppers and parafilm and grown at 37 C with 250 rpm shaking for 1.5 hours. Cultures were taken to the GC/MS and 100 uL of headspace gas was sampled and loaded onto the column. The method run was VOIGT.m. The number of counts for the appropriate mass (MeCl, MeBr, MeI) were reported. Cells were always grown in the presence of 30 ug/mL chloramphenicol.
Methyl halide production was measured as described in the previous Examples. […] C. neoformans JEC21 gave the best methyl bromide and methyl iodide production. Leptospirillum gave the best methyl iodide production.

Molecule	methyl bromide production	methyl iodide production
B1	best	–
B2	best	best
B3	–	best

Same assay, conditions: FIG. 7

Molecule	methyl halide transferase activity	halide specificity of methyl halide production
B4	insignificant activity	–
B5	insignificant activity	–
B6	insignificant activity	–
B7	insignificant activity	–
B8	insignificant activity	–
B9	insignificant activity	–
B10	–	significant specificity for methyl iodide production
B11	–	significant specificity for methyl iodide production
